IntAct's records for PubMed 26853155

B1: Syncytin-2 (Homo sapiens), P60508 (parent)
chain: MGLLLLVLILTPSLAAYRHPDFPLLEKAQQLLQSTGSPYSTNCWLCTSSSTETPGTAYPASPREWTSIEAELHISYRWDPNLKGLMRPANSLLSTVKQDFPDIRQKPPIFGPIFTNINLMGIAPICVMAKRKNGTNVGTLPSTVCNVTFTVDSNQQTYQTYTHNQFRHQPRFPKPPNITFPQGTLLDKSSRFCQGRPSSCSTRNFWFRPADYNQCLQISNLSSTAEWVLLDQTRNSLFWENKTKGANQSQTPCVQVLAGMTIATSYLGISAVSEFFGTSLTPLFHFHISTCLKTQGAFYICGQSIHQCLPSNWTGTCTIGYVTPDIFIAPGNLSLPIPIYGNSPLPRVRRAIHFIPLLAGLGILAGTGTGIAGITKASLTYSQLSKEIANNIDTMAKALTTMQEQIDSLAAVVLQNRRGLDMLTAAQGGICLALDEKCCFWVNQSGKVQDNIRQLLNQASSLRERATQGWLNWEGTWKWFSWVLPLTGPLVSLLLLLLFGPCLLNLITQFVSSRLQAIKLQTNLSAGRHPRNIQESPF
partner: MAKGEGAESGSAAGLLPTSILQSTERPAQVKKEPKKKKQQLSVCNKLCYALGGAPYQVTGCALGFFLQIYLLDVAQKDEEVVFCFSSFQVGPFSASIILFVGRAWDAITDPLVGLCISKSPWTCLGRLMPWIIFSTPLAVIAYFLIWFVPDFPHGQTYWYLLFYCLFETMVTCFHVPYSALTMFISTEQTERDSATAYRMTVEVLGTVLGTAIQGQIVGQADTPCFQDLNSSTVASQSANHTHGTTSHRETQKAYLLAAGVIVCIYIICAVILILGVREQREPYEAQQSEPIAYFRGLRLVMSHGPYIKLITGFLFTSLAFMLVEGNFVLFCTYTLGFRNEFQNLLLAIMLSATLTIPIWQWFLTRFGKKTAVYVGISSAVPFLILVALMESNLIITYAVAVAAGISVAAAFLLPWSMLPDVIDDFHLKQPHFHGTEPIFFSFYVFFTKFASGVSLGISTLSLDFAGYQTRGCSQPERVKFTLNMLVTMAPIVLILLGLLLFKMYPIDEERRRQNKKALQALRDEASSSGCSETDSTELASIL

Variants of: B1
Settings: with nls1_human MFSD2A

Row | effect of a mutation on the interaction | Variant
1 | decreasing interaction strength | MGLLLLVLILTPSLAAYRHPDFPLLEKAQQLLQSTGSPYSTNCWLCTSSSTETPGTAYPASPREWTSIEAELHISYRWDPNLKGLMRPANSLLSTVKQDFPDIRQKPPIFGPIFTNINLMGIAPICVMAKRKNGTNVGTLPSTVCNVTFTVDSNQQTYQTYTHNQFRHQPRFPKPPNITFPQGTLLDKSSRFCQGRPSSCSTRNFWFRPADYNQCLQISNLSSTAEWVLLDQTRNSLFWENKTKGANQSQTPCVQVLAGMTIATSYLGISAVSEFFGTSLTPLFHFHISTCLKTQGAFYICGQSIHQCLPSNWTGTCTIGYVTPDIFIAPGNLSLPIPIYGNSPLPRVRRAIHFIPLLAGLGILAGTGTGIAGITKASLTYSQLSKEIANNIDTMAKALTTMQEQIDSLAAVVLQNHRGLDMLTAAQGGICLALDEKCCFWVNQSGKVQDNIRQLLNQASSLRERATQGWLNWEGTWKWFSWVLPLTGPLVSLLLLLLFGPCLLNLITQFVSSRLQAIKLQTNLSAGRHPRNIQESPF [R417H]
2 | increasing interaction strength | MGLLLLVLILTPSLAAYRHPDFPLLEKAQQLLQSTGSPYSTNCWLCTSSSTETPGTAYPASPREWTSIEAELHISYRWDPNLKGLMRPANSLLSTVKQDFPDIRQKPPIFGPIFTNISLMGIAPICVMAKRKNGTNVGTLPSTVCNVTFTVDSNQQTYQTYTHNQFRHQPRFPKPPNITFPQGTLLDKSSRFCQGRPSSCSTRNFWFRPADYNQCLQISNLSSTAEWVLLDQTRNSLFWENKTKGANQSQTPCVQVLAGMTIATSYLGISAVSEFFGTSLTPLFHFHISTCLKTQGAFYICGQSIHQCLPSNWTGTCTIGYVTPDIFIAPGNLSLPIPIYGNSPLPRVRRAIHFIPLLAGLGILAGTGTGIAGITKASLTYSQLSKEIANNIDTMAKALTTMQEQIDSLAAVVLQNRRGLDMLTAAQGGICLALDEKCCFWVNQSGKVQDNIRQLLNQASSLRERATQGWLNWEGTWKWFSWVLPLTGPLVSLLLLLLFGPCLLNLITQFVSSRLQAIKLQTNLSAGRHPRNIQESPF [N118S]
3 | decreasing interaction strength | MGLLLLVLILTPSLAAYRHPDFPLLEKAQQLLQSTGSPYSTNCWLCTSSSTETPGTAYPASPREWTSIEAELHISYRWDPNLKGLMRPANSLLSTVKQDFPDIRQKPPIFGPIFTNINLMGIAPICVMAKRKNGTNVGTLPSTVCNVTFTVDSNQQTYQTYTHNQFRHQPRFPKPPNITFPQGTLLDKSSRFCQGRPSSCSTRNFWFRPADYNQCLQISNLSSTAEWVLLDQTRNSLFWENKTKGANQSQTPCVQVLAGMTIATSYLGISAVSEFFGTSLTPLFHFHISTCLKTQGAFYICGQSIHQCLPSNWTGTCTIGYVTPDIFIAPGQLSLPIPIYGNSPLPRVRRAIHFIPLLAGLGILAGTGTGIAGITKASLTYSQLSKEIANNIDTMAKALTTMQEQIDSLAAVVLQNRRGLDMLTAAQGGICLALDEKCCFWVNQSGKVQDNIRQLLNQASSLRERATQGWLNWEGTWKWFSWVLPLTGPLVSLLLLLLFGPCLLNLITQFVSSRLQAIKLQTNLSAGRHPRNIQESPF [N332Q]
4 | decreasing interaction strength | MGLLLLVLILTPSLAAYRHPDFPLLEKAQQLLQSTGSPYSTNCWLCTSSSTETPGTAYPASPREWTSIEAELHISYRWDPNLKGLMRPANSLLSTVKQDFPDIRQKPPIFGPIFTNINLMGIAPICVMAKRKNGTNVGTLPSTVCNVTFTVDSNQQTYQTYTHNQFRHQPRFPKPPNITFPQGTLLDKSSRFCQGRPSSCSTRNFWFRPADYNQCLQISNLSSTAEWVLLDQTRNSLFWENKTKGANQSQTPCVQVLAGMTIATSYLGISAVSEFFGTSLTPLFHFHISTCLKTQGAFYICGQSIHQCLPSNWTGTCTIGYVTPDIFIAPGNLSLPIPIYGNSPLPRVRRAIHFIPLLAGLGILAGTGTGIAGITKASLTYSQLSKEIANNIDTMAKALTTMQEQIDSLAAVVLQNRRGLDMLTAAQGGICLALDEKCCFWVNQSGKVQDNIRQLLNQASSLRERATQGWLNWEGTWKWFSWVLPLTGPLVSLLLLLLFGPCLLNLITQFVSSRLQAIKLQMNLSAGRHPRNIQESPF [T522M]
5 | decreasing interaction strength | MGLLLLVLILTPSLAAYRHPDFPLLEKAQQLLQSTGSPYSTNCWLRTSSSTETPGTAYPASPREWTSIEAELHISYRWDPNLKGLMRPANSLLSTVKQDFPDIRQKPPIFGPIFTNINLMGIAPICVMAKRKNGTNVGTLPSTVCNVTFTVDSNQQTYQTYTHNQFRHQPRFPKPPNITFPQGTLLDKSSRFCQGRPSSCSTRNFWFRPADYNQCLQISNLSSTAEWVLLDQTRNSLFWENKTKGANQSQTPCVQVLAGMTIATSYLGISAVSEFFGTSLTPLFHFHISTCLKTQGAFYICGQSIHQCLPSNWTGTCTIGYVTPDIFIAPGNLSLPIPIYGNSPLPRVRRAIHFIPLLAGLGILAGTGTGIAGITKASLTYSQLSKEIANNIDTMAKALTTMQEQIDSLAAVVLQNRRGLDMLTAAQGGICLALDEKCCFWVNQSGKVQDNIRQLLNQASSLRERATQGWLNWEGTWKWFSWVLPLTGPLVSLLLLLLFGPCLLNLITQFVSSRLQAIKLQTNLSAGRHPRNIQESPF [C46R]
6 | disrupting interaction strength | MGLLLLVLILTPSLAAYRHPDFPLLEKAQQLLQSTGSPYSTNCWLCTSSSTETPGTAYPASPREWTSIEAELHISYRWDPNLKGLMRPANSLLSTVKQDFPDIRQKPPIFGPIFTNINLMGIAPICVMAKRKNGTNVGTLPSTVCNVTFTVDSNQQTYQTYTHNQFRHQPRFPKPPNITFPQGTLLDKSSRFCQGRPSSCSTRNFWFRPADYNQCLQISNLSSTAEWVLLDQTRNSLFWENKTKGANQSQTPCVQVLAGMTIATSYLGISAVSEFFGTSLTPLFHFHISTCLKTQGAFYICGQSIHQCLPSNWTGTCTIGYVTPDIFIAPGNLSLPIPIYGNSPLPRVRRAIHFIPLLAGLGILAGMGTGIAGITKASLTYSQLSKEIANNIDTMAKALTTMQEQIDSLAAVVLQNRRGLDMLTAAQGGICLALDEKCCFWVNQSGKVQDNIRQLLNQASSLRERATQGWLNWEGTWKWFSWVLPLTGPLVSLLLLLLFGPCLLNLITQFVSSRLQAIKLQTNLSAGRHPRNIQESPF [T367M]
7 | decreasing interaction strength | MGLLLLVLILTPSLAAYRHPDFPLLEKAQQLLQSTGSPYSTNCWLCTSSSTETPGTAYPASPREWTSIEAELHISYRWDPNLKGLMRPANSLLSTVKQDFPDIRQKPPIFGPIFTNINLMGIAPICVMAKRKNGTNVGTLPSTVCNVTFTVDSNQQTYQTYTHNQFRHQPRFPKPPNITFPQGTLLDKSSRFCQGRPSSCSTRNFWFRPADYNQCLQISNLSSTAEWVLLDQTRNSLFWENKTKGANQSQTPCVQVLAGMTIATSYLGISAVSEFFGTSLTPLFHFHISTCLKTQGAFYICGQSIHQCLPSQWTGTCTIGYVTPDIFIAPGNLSLPIPIYGNSPLPRVRRAIHFIPLLAGLGILAGTGTGIAGITKASLTYSQLSKEIANNIDTMAKALTTMQEQIDSLAAVVLQNRRGLDMLTAAQGGICLALDEKCCFWVNQSGKVQDNIRQLLNQASSLRERATQGWLNWEGTWKWFSWVLPLTGPLVSLLLLLLFGPCLLNLITQFVSSRLQAIKLQTNLSAGRHPRNIQESPF [N312Q]
8 | decreasing interaction strength | MGLLLLVLILTPSLAAYRHPDFPLLEKAQQLLQSTGSPYSTNCWLCTSSSTETPGTAYPASPREWTSIEAELHISYRWDPNLKGLMRPANSLLSTVKQDFPDIRQKPPIFGPIFTNINLMGIAPICVMAKRKNGTNVGTLPSTVCNVTFTVDSNQQTYQTYTHNQFRHQPRFPKPPNITFPQGTLLDKSSRFCQGRPSSCSTRNFWFRPADYNQCLQISNLSSTAEWVLLDQTRNSLFWENKTKGANQSQTPCVQVLAGMTIATSYLGISAVSEFFGTSLTPLFHFHISTCLKTQGAFYICGQSIHQCLPSNWTGTCTIGYVTPDIFIAPGNLSLPIPIYGNSPLPRVRRAIHFIPLLAGLGILAGTGTGIAGITKASLTYSQLSKEIANNIDTMAKALTTMQEQIDSLAAVVLQNRRGLDMLTAAQGGICLALDEKCCFWVNQSGKVQDNIRQLLNQASSLRERATQGWLNWEGTWKWFSWILPLTGPLVSLLLLLLFGPCLLNLITQFVSSRLQAIKLQTNLSAGRHPRNIQESPF [V483I]
9 | disrupting interaction strength | MGLLLLVLILTPSLAAYRHPDFPLLEKAQQLLQSTGSPYSTNCWLCTSSSTETPGTAYPASPREWTSIEAELHISYRWDPNLKGLMRPANSLLSTVKQDFPDIRQKPPIFGPIFTNINLMGIAPICVMAKRKNGTNVGTLPSTVCNVTFTVDSNQQTYQTYTHNQFRHQPRFPKPPNITFPQGTLLDKSSRFCQGRPSSCSTRNFWFRPADYNQCLQISNLSSTAEWVLLDQTRNSLFWENKTKGANQSQTPCVQVLAGMTIATSYLGISAVSEFFGTSLTPLFHFHISTCLKTQGAFYICGQSIHQCLPSNWTGTCTIGYVTPDIFIAPGNLSLPIPIYGNSPLPRVRRAIHFIPLLAGLGILAGTGTGIAGITKASLTYSQLSKEIANNIDTMAKALTTMQEQIDSLAAVVLQNRRGLDMLTAAQGGICLALDEKCCFWVQQSGKVQDNIRQLLNQASSLRERATQGWLNWEGTWKWFSWVLPLTGPLVSLLLLLLFGPCLLNLITQFVSSRLQAIKLQTNLSAGRHPRNIQESPF [N443Q]
10 | decreasing interaction strength | MGLLLLVLILTPSLAAYRHPDFPLLEKAQQLLQSTGSPYSTNCWLCTSSSTETPGTAYPASPREWTSIEAELHISYRWDPNLKGLMRPANSLLSTVKQDFPDIRQKPPIFGPIFTNINLMGIAPICVMAKRKQGTNVGTLPSTVCNVTFTVDSNQQTYQTYTHNQFRHQPRFPKPPNITFPQGTLLDKSSRFCQGRPSSCSTRNFWFRPADYNQCLQISNLSSTAEWVLLDQTRNSLFWENKTKGANQSQTPCVQVLAGMTIATSYLGISAVSEFFGTSLTPLFHFHISTCLKTQGAFYICGQSIHQCLPSNWTGTCTIGYVTPDIFIAPGNLSLPIPIYGNSPLPRVRRAIHFIPLLAGLGILAGTGTGIAGITKASLTYSQLSKEIANNIDTMAKALTTMQEQIDSLAAVVLQNRRGLDMLTAAQGGICLALDEKCCFWVNQSGKVQDNIRQLLNQASSLRERATQGWLNWEGTWKWFSWVLPLTGPLVSLLLLLLFGPCLLNLITQFVSSRLQAIKLQTNLSAGRHPRNIQESPF [N133Q]
